Source: PMC5467235, “Variation in auxin sensing guides AUX/IAA transcriptional repressor ubiquitylation and destruction” (Nature Communications, 2017)

B1: GST-IAA6 [Arabidopsis thaliana] / ASK1-TIR1 protein complex [Arabidopsis thaliana] (parent)
chain 1: MAKEGLALEITELRLGLPGDNYSEISVCGSSKKKKRVLSDMMTSSALDTENENSVVSSVEDESLPVVKSQAVGWPPVCSYRRKKNNEEASKAIGYVKVSMDGVPYMRKIDLGSSNSYINLVTVLENLFGCLGIGVAKEGKKCEYIIIYEDKDRDWMLVGDVPWQMFKESCKRLRIVKRSDATGFGLQQD
chain 2: MQKRIALSFPEEVLEHVFSFIQLDKDRNSVSLVCKSWYEIERWCRRKVFIGNCYAVSPATVIRRFPKVRSVELKGKPHFADFNLVPDGWGGYVYPWIEAMSSSYTWLEEIRLKRMVVTDDCLELIAKSFKNFKVLVLSSCEGFSTDGLAAIAATCRNLKELDLRESDVDDVSGHWLSHFPDTYTSLVSLNISCLASEVSFSALERLVTRCPNLKSLKLNRAVPLEKLATLLQRAPQLEELGTGGYTAEVRPDVYSGLSVALSGCKELRCLSGFWDAVPAYLPAVYSVCSRLTTLNLSYATVQSYDLVKLLCQCPKLQRLWVLDYIEDAGLEVLASTCKDLRELRVFPSEPFVMEPNVALTEQGLVSVSMGCPKLESVLYFCRQMTNAALITIARNRPNMTRFRLCIIEPKAPDYLTLEPLDIGFGAIVEHCKDLRRLSLSGLLTDKVFEYIGTYAKKMEMLSVAFAGDSDLGMHHVLSGCDSLRKLEIRDCPFGDKALLANASKLETMRSLWMSSCSVSFGACKLLGQKMPKLNVEVIDERGAPDSRPESCPVERVFIYRTVAGPRFDMPGFVWNMDQDSTMRFSRQIITTNGL
chain 3: MSAKKIVLKSSDGESFEVEEAVALESQTIAHMVEDDCVDNGVPLPNVTSKILAKVIEYCKRHVEAAASKAEAVEGAATSDDDLKAWDADFMKIDQATLFELILAANYLNIKNLLDLTCQTVADMIKGKTPEEIRTTFNIKNDFTPEEEEEVRRENQWAFE

Variants of: B1
Assay: one-point saturation binding assay with [3H]IAA (radioligand binding)
Settings: 200 nM [3H]IAA, read off a plot

Row | response [c.p.m.] | Variant
1 | 3100 | chain 1 MAKEGLALEITELRLGLPGDNYSEISVCGSSKKKKRVLSDMMTSSALDTENENSVVSSVEDESLPVVKSQAVGWPPVRSYRRKKNNEEASKAIGYVKVSMDGVPYMRKIDLGSSNSYINLVTVLENLFGCLGIGVAKEGKKCEYIIIYEDKDRDWMLVGDVPWQMFKESCKRLRIVKRSDATGFGLQQD [chain 1 C78R]
